{
  "source": "paper PMC8352940",
  "about": "(2021)",
  "target": "SARS-CoV-2 RBD without the Fc fragment (SARS-CoV-2, UniProt P0DTC2 319-541)",
  "assay": "BLI",
  "data": [
    {"binder": "nCoVmab2 (antibody, V domains shown) VH: EVQLVQSGGGVVQPGRSLRLSCAASGFTVSSNYMSWVRQAPGKGLEWVSVIYSGGSTYYADSVKGRFTISRDNSKNTLYLQMNSLRAEDTAVYYCARGDGSDDYYYGMDVWGQGTTVTVSS VL: QAVLTQPSSVSGAPGQRVTISCTGSSSNVGAGYDVHWYQQLPGTAPKLLIYGNSNRPSGVPDRFSGSKSGTSASLAITGLQAEDEADYYCQSYDSSLSGSVFGGGTKLTVL", "values": [
      {"measurement": "koff", "result": "4.95e-05", "unit": "s⁻¹"}
    ]},
    {"binder": "nCoVmab1 (antibody, V domains shown) VH: QVQLVESGGGLVQPGGSLRLSCAASGFTVSSNYMSWVRQAPGKGLEWVSVIYSGGSTYYADSVKGRFTISRDNSKNTLYLQMNSLRAEDTAVYYCARGDGSDDYYYGMDVWGQGTTVTVSS VL: QSVVTQPPSVSGAQGQRVFISCTGNGANIGMGYDVHWYQQLPGRAPKLLIFGNTNRPSGVPDRFSASRSGTSASLAITGLQTADEADYYCQSYDGNLRASVFGGGTKLTVL", "values": [
      {"measurement": "koff", "result": "1.01e-05", "unit": "s⁻¹"}
    ]}
  ]
}
